Reference: PMC8509488
Each block holds one substance with its values, some of them ahead of it.

Experiments:
[1] = target: CgHspB1C145S, CgHspB1 mutant with Cys145 replaced by Ser (Chinese hamster); assay: AUC; sedimentation velocity, 40 °C, 0.5 mg/mL, with DTT
[2] = target: CgHspB1C145S, CgHspB1 mutant with Cys145 replaced by Ser (Chinese hamster); assay: AUC; sedimentation velocity, 40 °C, 0.5 mg/mL, without DTT (series with and without DTT)
[3] = target: CgHspB1 N-terminal deletion mutant (CgHspB1DeltaN), N-terminal 30 amino acids deleted, from pET23b (Chinese hamster); assay: SEC; HPLC-SEC, SB-804HQ gel-filtration column, sample heated at the specified temperature for 30 min, buffer B (50 mM Tris-HCl pH 7.5, 0.1 mM EDTA, 150 mM NaCl) with or without 20% ethylene glycol, 1.0 mL/min
[4] = target: CgHspB1S15D, phosphorylation mimic mutant of CgHspB1 (Ser15 replaced with Asp) (Chinese hamster); assay: AUC; sedimentation velocity, Rayleigh interference optics, 40,000 rpm, buffer containing 20% ethylene glycol; 4 °C, 0.1 mg/mL
[5] = target: CgHspB1S15D, phosphorylation mimic mutant of CgHspB1 (Ser15 replaced with Asp) (Chinese hamster); assay: AUC; sedimentation velocity, Rayleigh interference optics, 40,000 rpm, buffer containing 20% ethylene glycol; 4 °C, 0.5 mg/mL
[6] = target: CgHspB1S15D, phosphorylation mimic mutant of CgHspB1 (Ser15 replaced with Asp) (Chinese hamster); assay: AUC; sedimentation velocity, Rayleigh interference optics, 40,000 rpm, buffer containing 20% ethylene glycol; 4 °C, 1.5 mg/mL
[7] = target: CgHspB1S15D, phosphorylation mimic mutant of CgHspB1 (Ser15 replaced with Asp) (Chinese hamster); assay: AUC; sedimentation velocity, Rayleigh interference optics, 40,000 rpm, buffer containing 20% ethylene glycol; 25 °C, 0.5 mg/mL
[8] = target: CgHspB1S15D, phosphorylation mimic mutant of CgHspB1 (Ser15 replaced with Asp) (Chinese hamster); assay: AUC; sedimentation velocity, Rayleigh interference optics, 40,000 rpm, buffer containing 20% ethylene glycol; 25 °C, 1.5 mg/mL
[9] = target: CgHspB1S15D, phosphorylation mimic mutant of CgHspB1 (Ser15 replaced with Asp) (Chinese hamster); assay: AUC; sedimentation velocity, Rayleigh interference optics, 40,000 rpm, buffer containing 20% ethylene glycol; 40 °C, 1.5 mg/mL
[10] = target: CgHspB1S15D, phosphorylation mimic mutant of CgHspB1 (Ser15 replaced with Asp) (Chinese hamster); assay: AUC; sedimentation velocity, Rayleigh interference optics, 40,000 rpm, buffer containing 20% ethylene glycol; 25 °C, 0.1 mg/mL
[11] = target: CgHspB1S15D, phosphorylation mimic mutant of CgHspB1 (Ser15 replaced with Asp) (Chinese hamster); assay: AUC; sedimentation velocity, Rayleigh interference optics, 40,000 rpm, buffer containing 20% ethylene glycol; 40 °C, 0.1 mg/mL
[12] = target: CgHspB1S15D, phosphorylation mimic mutant of CgHspB1 (Ser15 replaced with Asp) (Chinese hamster); assay: AUC; sedimentation velocity, Rayleigh interference optics, 40,000 rpm, buffer containing 20% ethylene glycol; 40 °C, 0.5 mg/mL
[13] = target: HspB1 from Chinese hamster, wild type (CgHspB1WT) (Chinese hamster); assay: AUC; sedimentation velocity, Rayleigh interference optics, 40,000 rpm, buffer containing 20% ethylene glycol; 25 °C, 0.5 mg/mL
[14] = target: HspB1 from Chinese hamster, wild type (CgHspB1WT) (Chinese hamster); assay: AUC; sedimentation velocity, Rayleigh interference optics, 40,000 rpm, buffer containing 20% ethylene glycol; 25 °C, 1.5 mg/mL
[15] = target: HspB1 from Chinese hamster, wild type (CgHspB1WT) (Chinese hamster); assay: AUC; sedimentation velocity, Rayleigh interference optics, 40,000 rpm, buffer containing 20% ethylene glycol; 40 °C, 1.5 mg/mL

- stoichiometry N ([1]; c(s20,w) peak a): 21
- stoichiometry N ([1]; c(s20,w) peak b): 25
- stoichiometry N ([1]; c(s20,w) peak c): 32
- stoichiometry N ([2]; c(s20,w) peak a): 21
- stoichiometry N ([2]; c(s20,w) peak b): 25
- stoichiometry N ([2]; c(s20,w) peak c): 33
Substance: CgHspB1C145S, CgHspB1 mutant with Cys145 replaced by Ser (natural protein)

- stoichiometry N [3]: 6
Substance: CgHspB1 N-terminal deletion mutant (CgHspB1DeltaN), N-terminal 30 amino acids deleted, from pET23b (domain or fragment)

- stoichiometry N [4]: 19
- stoichiometry N [5]: 19
- stoichiometry N [6]: 18
- stoichiometry N [7]: 19
- stoichiometry N [8]: 19
- stoichiometry N [9]: 27
- stoichiometry N [10]: 18
- stoichiometry N [11]: 26
- stoichiometry N [12]: 26
Substance: CgHspB1S15D, phosphorylation mimic mutant of CgHspB1 (Ser15 replaced with Asp) (natural protein)

- stoichiometry N ([13]; c(s20,w) peak b): 6
- stoichiometry N ([13]; c(s20,w) peak c): 18
- stoichiometry N ([14]; c(s20,w) peak a): 20
- stoichiometry N ([14]; c(s20,w) peak b): 30
- stoichiometry N ([15]; c(s20,w) peak a): 20
- stoichiometry N ([15]; c(s20,w) peak b): 27
- stoichiometry N ([15]; c(s20,w) peak c): 38
Substance: HspB1 from Chinese hamster, wild type (CgHspB1WT) (natural protein)
